This test concerns the target T1, Abp1 SH3 (ABP1_YEAST), P15891.
T1 chain: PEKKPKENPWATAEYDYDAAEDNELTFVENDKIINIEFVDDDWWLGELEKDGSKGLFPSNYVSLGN
The experiment in a line: SPOT array.
Molecule EPASVYESNGPNKP [YMR086W 699-712] returned a normalised SPOT signal, Boehringer light units (BLU); mean over the file's lines of this peptide of 18.6.

Molecule EIELLVDSKDPNKP [YLL040C 1996-2009] showed a normalised SPOT signal, Boehringer light units (BLU); mean over the file's lines of this peptide of 126. Take EHAVANGPSHRRP [YBL101C 762-774]: the normalised SPOT signal, Boehringer light units (BLU); mean over the file's lines of this peptide was 97.9. The same measure for EGKNEETPQNEKP [YKL144C 179-191]: 126; for ENRKGEKDAAPAKP [YGL061C 171-184]: 87.1; for EKFRVNRPIQLRP [YHL038C 520-532]: 1490. Molecule EHFDIPPPAIMKP [YOR116C 588-600] showed a normalised SPOT signal, Boehringer light units (BLU); mean over the file's lines of this peptide of 106.

In the case of EGSQSVPIEIPKKP [YLR081W 51-64], the normalised SPOT signal, Boehringer light units (BLU); mean over the file's lines of this peptide turned out to be 132. The molecule EKTGNAHPLGFRP [YPR016W-A 66-78] gave a normalised SPOT signal, Boehringer light units (BLU); mean over the file's lines of this peptide of 124. ELFIIIQPPVMKP [YIR007W 413-425] showed a normalised SPOT signal, Boehringer light units (BLU); mean over the file's lines of this peptide of 98.8. EKVYRTEEKAPIRP [YDL203C 183-196] showed a normalised SPOT signal, Boehringer light units (BLU); mean over the file's lines of this peptide of 38.6. For the molecule EIERHETPLNIRP [YGR267C 9-21], the normalised SPOT signal, Boehringer light units (BLU); mean over the file's lines of this peptide is 0. In turn, EFRKSDEPVSVKP [YBR237W 77-89] had a normalised SPOT signal, Boehringer light units (BLU); mean over the file's lines of this peptide of 69.6. In the case of ELNLKLLNLFPSKP [YGR134W 1043-1056], the normalised SPOT signal, Boehringer light units (BLU); mean over the file's lines of this peptide was 164. Molecule EFRQEIIDRVPLRP [YMR027W 61-74] gave a normalised SPOT signal, Boehringer light units (BLU); mean over the file's lines of this peptide of 118.

Regarding EIQNGKRPVLLKP [YIR007W 368-380], the normalised SPOT signal, Boehringer light units (BLU); mean over the file's lines of this peptide worked out at 248. The molecule ENEFQVIPIRFKP [YER085C 144-156] displayed a normalised SPOT signal, Boehringer light units (BLU); mean over the file's lines of this peptide of 127. EFTDMEIPDSVKP [YKL010C 660-672]: the normalised SPOT signal, Boehringer light units (BLU); mean over the file's lines of this peptide was determined as 72.6. The same measure for ENAVKSEQQFPGRP [YOR347C 67-80]: 80.3; for EHMLYIIPPQIKP [YIL103W 218-230]: 96.5; for EKEKEKSPEISKP [YNR051C 181-193]: 67.3. For EMYQDKLPPNVKP [YHR190W 379-391], the normalised SPOT signal, Boehringer light units (BLU); mean over the file's lines of this peptide is 143. The molecule EGQVLYDPEPFKP [YNL086W 59-71] gave a normalised SPOT signal, Boehringer light units (BLU); mean over the file's lines of this peptide of 128. For the molecule ENYLSTRPSVLKP [YOR217W 594-606], the normalised SPOT signal, Boehringer light units (BLU); mean over the file's lines of this peptide came out at 84.9.

EHSRVKLPHSPKP [YOR208W 421-433] displayed a normalised SPOT signal, Boehringer light units (BLU); mean over the file's lines of this peptide of 395. EKGQALVVFSPHRP [YLR285W 193-206] registered a normalised SPOT signal, Boehringer light units (BLU); mean over the file's lines of this peptide of 182. In turn, EKHELIIPTPSKP [YCL027W 384-396] returned a normalised SPOT signal, Boehringer light units (BLU); mean over the file's lines of this peptide of 140. For the molecule ELQNEDWPNESKP [YNL274C 336-348], the normalised SPOT signal, Boehringer light units (BLU); mean over the file's lines of this peptide was 24. Molecule EKARNVEYKKPQKP [YCL061C 306-319] showed a normalised SPOT signal, Boehringer light units (BLU); mean over the file's lines of this peptide of 80.9. ELRGLDDPTIVKP [YGR099W 548-560] displayed a normalised SPOT signal, Boehringer light units (BLU); mean over the file's lines of this peptide of 152. The same measure for EETIVFLQSDPSRP [YDR127W 1000-1013]: 50.7; for ENPIDKLDGTPKRP [YIL063C 22-35]: 21.5; for EKASRFRPTIDRP [YJL196C 11-23]: 910. Molecule EPKMQKQTIFPGKP [YHL022C 194-207] displayed a normalised SPOT signal, Boehringer light units (BLU); mean over the file's lines of this peptide of 619. ELQKRVGPDNFKP [YKL155C 149-161] displayed a normalised SPOT signal, Boehringer light units (BLU); mean over the file's lines of this peptide of 130.

On to EGGAYIIPNFGKP [YPR184W 920-932], for which the normalised SPOT signal, Boehringer light units (BLU); mean over the file's lines of this peptide worked out at 4.8.

For the molecule ELKERDFDQAPLKP [YCR088W 207-220], the normalised SPOT signal, Boehringer light units (BLU); mean over the file's lines of this peptide amounted to 89.2. In the case of ENEPTLNPFTNKP [YJR122W 411-423], the normalised SPOT signal, Boehringer light units (BLU); mean over the file's lines of this peptide stood at 138. Regarding EIFPNSKPLQPKP [YJL010C 631-643], the normalised SPOT signal, Boehringer light units (BLU); mean over the file's lines of this peptide was determined as 13.6.

The values above are taken from paper PMC314469, “Protein Interaction Networks by Proteome Peptide Scanning” (PLoS Biology, 2004).
